Test results as given in patent US20210380703A1 (RIGEL PHARMACEUTICALS, published 2021).
Substitutions are numbered along the chain they refer to.

B1: 374_A10 (antibody, V domains shown)
VH: EVQLLESGGGLVQPGGSLRLSCAASGFTFSSYGMHWVRQAPGKGLEWVSGINYNGGYTSYADSVKGRFTISRDNSKNTLYLQMNSLRAEDTAVYYCARAATWHDTHLDYWGQGTLVTVSS
VL: DIQMTQSPSSLSASVGDRVTITCRASQSILSYVNWYQQKPGKAPKLLIYAATSRASGVPSRFSGSGSGTDFTLTISSLQPEDFATYYCQQSYDTPLTFGGGTKVEIK
notes: Group II
B2: 368_C02 (antibody, V domains shown)
VH: B1 VH with S30D, S31D, G33S, H35N, S49A, G50N, T58K, S59G, A99G, T101N
VL: B1 VL with L30S, S31T, R54L, D93S
notes: Group III
B3: 369_A03 (antibody, V domains shown)
VH: B1 VH with H35N, G50N, S59G, A99S, T101N, H106A
VL: B1 VL with S31T, V33L, A51V, A55H, S91G, T94L
B4: 376_C08 (antibody, V domains shown)
VH: B1 VH with S30D, G33S, H35N, S49A, G55S, S59G, A99G, T101N
VL: not shown
notes: Group III
B5: 365_C05 (antibody, V domains shown)
VH: B1 VH with S31D, G33S, H35N, T58K, S59G, A99G, T101N
VL: B1 VL with S31T, V33L, A55H, D93N, T94S
notes: Group III
B6: 365_D04 (antibody, V domains shown)
VH: B1 VH with S31D, S49A, T58K, T101N, H106A
VL: B1 VL with L30S, V33L, L47V, A51V, T94L
notes: Group I
B7: 365_G06 (antibody, V domains shown)
VH: B1 VH with S30D, S49A
VL: B1 VL with V33L, R54L, Y92D, D93S
notes: Group II
B8: 365_G08 (antibody, V domains shown)
VH: B1 VH with S49A, G50S
VL: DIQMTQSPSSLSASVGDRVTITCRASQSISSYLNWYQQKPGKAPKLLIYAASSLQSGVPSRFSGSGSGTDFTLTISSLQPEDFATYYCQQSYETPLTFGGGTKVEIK
notes: Group II
B9: 365_B08 (antibody, V domains shown)
VH: B1 VH with S30D, H35N, G50N, G55S, T58K, S59G
VL: B1 VL with L30V, S31T, V33L, D93S, T94S
notes: Group II
B10: 365_G03 (antibody, V domains shown)
VH: B1 VH with H35N, S49A, G55S, T58K, S59G, A99G, T101N
VL: B1 VL with L30V, V33L, D93N
notes: Group III
B11: 365_H08 (antibody, V domains shown)
VH: B1 VH with S49A, G50S, T58K, T101N, H106A
VL: not shown
notes: Group I
B12: 365_F10 (antibody, V domains shown)
VH: B1 VH with S30D, S31D
VL: B1 VL with L30V, S31T, D93E, T94L
notes: Group II
B13: 365_E12 (antibody, V domains shown)
VH: B1 VH with S31D, H35N, G50N, S59G, A99G, T101N, H106A
VL: B1 VL with S31T, V33L, D93E
notes: Group III
B14: 365_G09 (antibody, V domains shown)
VH: B1 VH with G33S, H35N, T58K, A99G, T101N
VL: B1 VL with L30I, S31T, V33L, L47V, D93N, T94S
notes: Group III
B15: 376_E02 (antibody, V domains shown)
VH: B1 VH with G33S, H35N, S49A, T58K, S59G, A99G, T101N, H106A
VL: B1 VL with L47V, A55H, Y92D, D93N
notes: Group III
B16: 365_G07 (antibody, V domains shown)
VH: B1 VH with S30D, G50S, T101N, H106A
VL: B1 VL with L30V, V33L, T94N
notes: Group I
B17: 365_F11 (antibody, V domains shown)
VH: B1 VH with S30D, G33S, H35N, G55S, T58K, S59G, T101N
VL: B1 VL with L30I, D93N
notes: Group I
B18: 376_F01 (antibody, V domains shown)
VH: B1 VH with S31D, G33S, H35N, S49A, T58K, A99G, T101N, H106A
VL: not shown
notes: Group III
B19: 365_D03 (antibody, V domains shown)
VH: B1 VH with S30D, S31D, G33S, S49A, G50S, T58K
VL: B1 VL with L30V, V33L, L47V, T94S
notes: Group II
B20: 365_C03 (antibody, V domains shown)
VH: B1 VH with S49A, G55S, T58K, S59G, T101N
VL: B1 VL with S31T, L47V, A51T, R54L, D93N
notes: Group I
B21: 365_C06 (antibody, V domains shown)
VH: B1 VH with S31D, T101N, H106A
VL: B1 VL with L30S, S31T, A51V, R54L, T94N
notes: Group I
B22: 365_D08 (antibody, V domains shown)
VH: B1 VH with S30D, G33S, G50S
VL: B1 VL with L30I, S31T
notes: Group II
B23: 365_G05 (antibody, V domains shown)
VH: B1 VH with H35N, T58K, S59G, A99G, T101N, H106A
VL: B1 VL with V33L, L47V, R54L, D93E, T94N
notes: Group III
B24: 365_A05 (antibody, V domains shown)
VH: B1 VH with G50S
VL: not shown
notes: Group II
B25: 365_E06 (antibody, V domains shown)
VH: B1 VH with S30D, H35N, S59G
VL: B1 VL with S31T, V33L, L47V, D93N
notes: Group II
B26: 365_B12 (antibody, V domains shown)
VH: B1 VH with S31D
VL: B1 VL with L30S, S31T, A51V, R54L, A55H, T94N
notes: Group II
B27: 365_E04 (antibody, V domains shown)
VH: B1 VH with S30D, S49A, G50S, T58K, T101N, H106A
VL: B1 VL with R54L, D93E, T94L
notes: Group I
B28: 365_G04 (antibody, V domains shown)
VH: B1 VH with S30D, G33S, H35N, S49A, S59G, A99G, T101N
VL: B1 VL with L30V, L47V, R54L
notes: Group III
B29: 365_H07 (antibody, V domains shown)
VH: B1 VH with S30D, G33S, H35N, A99G, T101N
VL: B1 VL with L30S, S31T, A55H, D93E, T94N
notes: Group III
B30: 376_E11 (antibody, V domains shown)
VH: B1 VH with G33S, H35N, A99G, T101N, H106A
VL: B1 VL with S31T, L47V, D93E, T94L
notes: Group III
B31: 365_F03 (antibody, V domains shown)
VH: B1 VH with S30D, G33S, H35N, G50S, A99G, T101N
VL: B1 VL with V33L, T94N
notes: Group III
B32: 365_F02 (antibody, V domains shown)
VH: B1 VH with G33S, H35N, T58K, S59G, A99G, T101N
VL: B1 VL with S31T, A55H
notes: Group III
B33: 365_B04 (antibody, V domains shown)
VH: B1 VH with S49A, G50S, G55S, T101N, H106A
VL: B1 VL with S31T, V33L, A55H, Y92D, D93E, T94S
notes: Group I
B34: 376_D07 (antibody, V domains shown)
VH: B1 VH with S30D, G33S, H35N, A99G, T101N
VL: not shown
notes: Group III

Legend:
[1] = target: T1, biotinylated goat anti-human kappa light chain; assay: ELISA, positive control
T1 construct: positive control of the ELISA
Summary of the method: (§1)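 ELISA measured binding of ACVR2A-specific monoclonal antibodies to human and mouse ACVR2A. Biotinylated goat anti-human kappa light chain served as positive control and human Fc as negative control.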

human ACVR2A [2] = target: T2, human ACVR2A (human, UniProt P27037 20-135, limits assumed); assay: ELISA
T2 construct: also called activin receptor, type II A
Summary of the method: as §1
T2 sequence (P27037 20-135 limits assumed): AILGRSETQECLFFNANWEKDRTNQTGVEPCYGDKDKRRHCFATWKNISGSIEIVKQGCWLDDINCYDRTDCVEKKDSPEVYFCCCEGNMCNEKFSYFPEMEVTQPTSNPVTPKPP

mouse ACVR2A [3] = target: mouse ACVR2A (mouse, UniProt P27038 20-135, limits assumed); assay: ELISA
Summary of the method: as §1
Target sequence in this assay (P27038 20-135 limits assumed): as the sequence (P27037 20-135 limits assumed) above, with K20R, V73I counted along it

[4] = target: T3, biotinylated goat anti-human kappa light chain; assay: ELISA, positive control; remark: listed apart in the source
T3 construct: positive control of the ELISA
Summary of the method: as §1

mouse ACVR2A [5] = target: T4, mouse ACVR2A (mouse, UniProt P27038 20-135, limits assumed); assay: ELISA
T4 construct: coated antigen of the initial ELISA
Summary of the method: as §1
T4 sequence (P27038 20-135 limits assumed): as the sequence (P27037 20-135 limits assumed) above, with K20R, V73I counted along it

human ACVR2A [6] = target: T5, human ACVR2A (human, UniProt P27037 20-135, limits assumed); assay: ELISA
T5 construct: coated antigen of the initial ELISA; also called activin receptor, type II A
Summary of the method: as §1
T5 sequence (P27037 20-135 limits assumed): as the sequence (P27037 20-135 limits assumed) above

Goat anti-Human Kappa = target: T6, Goat anti-Human Kappa; assay: ELISA, positive control
T6 construct: Positive control of the ELISA; also called biotinylated goat anti-human kappa light chain
Summary of the method: as §1

Human ACVR2A [7] = target: T7, Human ACVR2A (human, UniProt P27037 20-135, limits assumed); assay: ELISA
T7 construct: also called activin receptor, type II A
Summary of the method: as §1
Also: test concentration or dose not given here.

T7 sequence (P27037 20-135 limits assumed): as above

| Binder | optical density [1] | optical density (human ACVR2A [2]) | optical density (mouse ACVR2A [3]) | optical density [4] | optical density (mouse ACVR2A [5]) | optical density (human ACVR2A [6]) | optical density (Goat anti-Human Kappa) | optical density (Human ACVR2A [7]) |
| --- | --- | --- | --- | --- | --- | --- | --- | --- |
| B1 | 3 OD | 3.56 OD | 3.59 OD |  |  |  |  |  |
| B2 |  |  |  | 3.51 OD | 1.49 OD | 1.38 OD |  |  |
| B3 |  |  |  |  |  |  | 3.17 OD | 0.451 OD |
| B4 |  |  |  | 3.46 OD | 3.63 OD | 3.61 OD |  |  |
| B5 | 3.53 OD | 2.56 OD | 2.81 OD |  |  |  |  |  |
| B6 | 3.52 OD | 2.27 OD | 2.39 OD |  |  |  |  |  |
| B7 | 3.34 OD | 2.2 OD | 2.02 OD |  |  |  |  |  |
| B8 | 3.5 OD | 2.53 OD | 2.58 OD |  |  |  |  |  |
| B9 | 3.04 OD | 1.14 OD | 1.26 OD |  |  |  |  |  |
| B10 | 3.54 OD | 2.24 OD | 2.54 OD |  |  |  |  |  |
| B11 | 3.59 OD | 2.67 OD | 2.61 OD |  |  |  |  |  |
| B12 | 3.65 OD | 2.75 OD | 2.79 OD |  |  |  |  |  |
| B13 | 3.52 OD | 3.32 OD | 3.28 OD |  |  |  |  |  |
| B14 | 3.67 OD | 2.62 OD | 2.93 OD |  |  |  |  |  |
| B15 |  |  |  | 3.41 OD | 3.38 OD | 3.3 OD |  |  |
| B16 | 3.47 OD | 2.42 OD | 2.6 OD |  |  |  |  |  |
| B17 | 3.5 OD | 2.01 OD | 2.14 OD |  |  |  |  |  |

| Binder | optical density [1] | optical density (human ACVR2A [2]) | optical density (mouse ACVR2A [3]) | optical density [4] | optical density (mouse ACVR2A [5]) | optical density (human ACVR2A [6]) | optical density (Goat anti-Human Kappa) | optical density (Human ACVR2A [7]) |
| --- | --- | --- | --- | --- | --- | --- | --- | --- |
| B18 |  |  |  | 3.18 OD | 3.02 OD | 2.77 OD |  |  |
| B19 | 3.53 OD | 2.35 OD | 2.48 OD |  |  |  |  |  |
| B20 | 3.5 OD | 2.26 OD | 2.65 OD |  |  |  |  |  |
| B21 | 3.45 OD | 1.78 OD | 2.23 OD |  |  |  |  |  |
| B22 | 3.61 OD | 2.26 OD | 2.35 OD |  |  |  |  |  |
| B23 | 3.35 OD | 2.44 OD | 2.54 OD |  |  |  |  |  |
| B24 | 3.45 OD | 2.34 OD | 2.23 OD |  |  |  |  |  |
| B25 | 3.29 OD | 1.99 OD | 2.06 OD |  |  |  |  |  |
| B26 | 3.43 OD | 2.33 OD | 2.29 OD |  |  |  |  |  |
| B27 | 3.54 OD | 2.34 OD | 2.4 OD |  |  |  |  |  |
| B28 | 3.29 OD | 2.1 OD | 2.48 OD |  |  |  |  |  |
| B29 | 3.43 OD | 2.51 OD | 2.75 OD |  |  |  |  |  |
| B30 |  |  |  | 3.47 OD | 3.65 OD | 3.68 OD |  |  |
| B31 | 3.57 OD | 2.63 OD | 2.99 OD |  |  |  |  |  |
| B32 | 3.4 OD | 2.78 OD | 3.05 OD |  |  |  |  |  |
| B33 | 3.12 OD | 1.99 OD | 2.18 OD |  |  |  |  |  |
| B34 |  |  |  | 3.44 OD | 3.44 OD | 3.38 OD |  |  |
